Test results taken from US9187525B2, “Methods of treating ophthalmic diseases using NPR-B agonists” (Shire Orphan Therapies GmbH, dated 2015).
One block for each binder: values may come before it. Numbered stars: 1 amine (or outer) side, 2 acyl side, 3 side chain; on linkers, the order of the positions; unused ones are H or OH. Square brackets hold non-standard residues; d marks the D form. Ends that are not written are not given here. * marks the point of attachment. Sni = (S)-nipecotic acid, O=C([C@H]1CCCN([*:1])C1)[*:2]; Oic = O=C(O)[C@@H]1C[C@@H]2CCCC[C@@H]2N1; Hyp = O=C(O)[C@@H]1C[C@@H](O)CN1; NMeL = CN[C@@H](CC(C)C)C(=O)O; AR‑201‑58 = not defined here; AR‑201‑62 = not defined here; AR‑201‑68 = not defined here; AR‑201‑69 = not defined here; AR‑201‑72 = not defined here; AR‑201‑73 = not defined here; Octanoyl = CCCCCCCC(=O)*; Nbt = 4-butyl-thiazole; Sbt = 5-butyl-thiazole

Biological target: T1, natriuretic peptide receptor-B (human)
T1 chain: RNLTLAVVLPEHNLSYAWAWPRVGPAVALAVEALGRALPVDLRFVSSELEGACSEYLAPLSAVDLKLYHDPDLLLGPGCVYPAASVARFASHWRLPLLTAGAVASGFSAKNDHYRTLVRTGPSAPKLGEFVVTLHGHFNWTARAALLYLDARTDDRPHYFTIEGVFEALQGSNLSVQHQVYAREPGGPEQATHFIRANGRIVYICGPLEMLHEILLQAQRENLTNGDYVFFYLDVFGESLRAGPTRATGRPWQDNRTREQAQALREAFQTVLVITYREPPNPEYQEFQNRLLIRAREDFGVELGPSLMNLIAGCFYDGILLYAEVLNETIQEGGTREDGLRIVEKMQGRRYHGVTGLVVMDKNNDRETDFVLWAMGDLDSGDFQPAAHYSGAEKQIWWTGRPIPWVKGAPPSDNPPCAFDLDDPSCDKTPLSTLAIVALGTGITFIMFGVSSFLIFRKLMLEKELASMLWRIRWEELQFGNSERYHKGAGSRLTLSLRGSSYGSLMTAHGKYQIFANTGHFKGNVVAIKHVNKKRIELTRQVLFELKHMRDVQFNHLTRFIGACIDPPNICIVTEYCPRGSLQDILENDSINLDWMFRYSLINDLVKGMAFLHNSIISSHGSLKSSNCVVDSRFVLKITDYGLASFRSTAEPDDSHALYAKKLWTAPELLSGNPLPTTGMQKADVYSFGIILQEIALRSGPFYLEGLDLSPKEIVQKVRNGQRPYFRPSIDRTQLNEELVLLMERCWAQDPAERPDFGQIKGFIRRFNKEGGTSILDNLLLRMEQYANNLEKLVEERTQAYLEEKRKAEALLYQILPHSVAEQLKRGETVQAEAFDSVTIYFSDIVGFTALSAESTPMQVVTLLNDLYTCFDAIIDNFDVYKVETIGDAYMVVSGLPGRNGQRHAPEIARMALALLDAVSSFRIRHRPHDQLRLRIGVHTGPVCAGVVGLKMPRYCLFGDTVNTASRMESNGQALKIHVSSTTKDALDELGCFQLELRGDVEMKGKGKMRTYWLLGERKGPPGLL
Assay: cell-based or functional assay

- EC50 group, cGMP in GTM-3 cells: ≤ 5 µM
B1: JAL-1381 (peptide)
peptide: [AR‑201‑68]F[dR]L[Hyp][NMeL]DRI-NH2
modifications: reading uncertain; also: printed as (AR-201-68)-Phe-arg-Leu-Hyp-Nml-Asp-Arg-Ile-NH2

- EC50 group, cGMP in GTM-3 cells: ≤ 1 µM
B2: JAL-1380 (peptide)
peptide: [AR‑201‑68]F[dL]L[Hyp][NMeL]DRI-NH2
modifications: reading uncertain; also: printed as (AR-201-68)-Phe-leu-Leu-Hyp-Nml-Asp-Arg-Ile-NH2

- EC50 group, cGMP in GTM-3 cells: ≤ 5 µM
B3: JAL-1375 (peptide)
peptide: [AR‑201‑69]F[dL]L[Hyp][NMeL]DRI-NH2
modifications: reading uncertain; also: printed as (AR-201-69)-Phe-leu-Leu-Hyp-Nml-Asp-Arg-Ile-NH2

- EC50 group, cGMP in GTM-3 cells: ≤ 15 µM
Binder: Octanoyl-[dA]F[dR]L[Hyp]PDRI-NH2 [JAL-1387]

- EC50 group, cGMP in GTM-3 cells: ≤ 5 µM
Binder: Octanoyl-[dA]F[dL]L[Hyp][Oic]DRI-NH2 [JAL-1386]

- EC50 group, cGMP in GTM-3 cells: ≤ 15 µM
B4: JAL-1376 (peptide)
peptide: [AR‑201‑72]F[dL]L[Hyp][NMeL]DRI-NH2
modifications: reading uncertain; also: printed as (AR-201-72)-Phe-leu-Leu-Hyp-Nml-Asp-Arg-Ile-NH2

- EC50 group, cGMP in GTM-3 cells: ≤ 1 µM
Binder: Sbt-[Sni]F[dL]L[Hyp][NMeL]DRI-NH2 [JAL-1382]

- EC50 group, cGMP in GTM-3 cells: ≤ 15 µM
B5: JAL-0650 (peptide)
peptide: XXFGLKLDRI
HELM: PEPTIDE1{[CCCCCC(=O)[*:2]].[O=C(Cc1ccc(N[*:1])cc1)[*:2]].F.G.L.K.L.D.R.I.[am]}$$$$V2.0
SMILES: CCCCCC(=O)Nc1ccc(CC(=O)N[C@@H](Cc2ccccc2)C(=O)NCC(=O)N[C@@H](CC(C)C)C(=O)N[C@@H](CCCCN)C(=O)N[C@@H](CC(C)C)C(=O)N[C@@H](CC(=O)O)C(=O)N[C@@H](CCCNC(=N)N)C(=O)N[C@H](C(N)=O)[C@@H](C)CC)cc1

- EC50 group, cGMP in GTM-3 cells: ≤ 5 µM
B6: JAL-1374 (peptide)
peptide: [AR‑201‑62]F[dL]L[Hyp][NMeL]DRI-NH2
modifications: reading uncertain; also: printed as (AR-201-62)-Phe-leu-Leu-Hyp-Nml-Asp-Arg-Ile-NH2

- EC50 group, cGMP in GTM-3 cells: ≤ 5 µM
B7: JAL-1378 (peptide)
peptide: [AR‑201‑73]F[dL]L[Hyp][NMeL]DRI-NH2
modifications: reading uncertain; also: printed as (AR-201-73)-Phe-leu-Leu-Hyp-Nml-Asp-Arg-Ile-NH2

- EC50 group, cGMP in GTM-3 cells: ≤ 5 µM
B8: JAL-1373 (peptide)
peptide: [AR‑201‑58]F[dL]L[Hyp][NMeL]DRI-NH2
modifications: reading uncertain; also: printed as (AR-201-58)-Phe-leu-Leu-Hyp-Nml-Asp-Arg-Ile-NH2

- EC50 group, cGMP in GTM-3 cells: ≤ 15 µM
B9: JAL-1377 (peptide)
peptide: [AR‑201‑72]F[dR]L[Hyp][NMeL]DRI-NH2
modifications: reading uncertain; also: printed as (AR-201-72)-Phe-arg-Leu-Hyp-Nml-Asp-Arg-Ile-NH2

- EC50 group, cGMP in GTM-3 cells: ≤ 5 µM
Binder: Nbt-[Sni]F[dL]L[Hyp][NMeL]DRI-NH2 [JAL-1383]

- EC50 group, cGMP in GTM-3 cells: ≤ 5 µM
B10: JAL-1379 (peptide)
peptide: [AR‑201‑73]F[dR]L[Hyp][NMeL]DRI-NH2
modifications: reading uncertain; also: printed as (AR-201-73)-Phe-arg-Leu-Hyp-Nml-Asp-Arg-Ile-NH2
